Read-outs that look alike come from different tables or passages of the source.
What was measured:
[1] = biological target: T1, recombinant mouse TfR-1, His-tagged (Sino Biological 50741-M07H) (mouse, UniProt Q62351 89-763); assay: SPR, His-captured TfR1
T1 construct: bought; His-tagged; also called mTfR1; mTfR-1
Protocol: (§1) Detailed binding kinetic analyses were performed to gain a better understanding of the relationship between affinity and brain penetration of the Clone C variants. Biacore surface plasmon resonance (SPR) analysis using immobilised mouse and human TfR-1 was performed for selected clones (Table 2).
(§2) Binding kinetics of VNAR-Fcs was determined by surface plasmon resonance (Biacore T200, GE Healthcare). CMS chips were coated with anti-His antibodies (His Capture Kit, GE Healthcare) as recommended by the manufacturer and human or mouse his-tagged TfR1 (SinoBiological) at 10 ug/mL in HBS-EP+ (GE Healthcare) was captured at flow rate 10 ul/min (contact time 120 s). […] A flow cell without TfR1 captured served as a reference. Sensorgrams were fitted and kinetic constants were determined using Biacore T200 Evaluation software. Chips were regenerated in 10 mM Glycine-HCl, pH 1.5 (contact time: 120 s at flow rate 30 ul/min).

[2] = biological target: T2, recombinant human TfR-1, His-tagged (Sino Biological 11020-H07H) (human, UniProt P02786 89-760); assay: SPR, His-captured TfR1
T2 construct: bought; His-tagged; also called hTfR1; hTfR-1
T2 sequence (P02786 89-760 limits assumed): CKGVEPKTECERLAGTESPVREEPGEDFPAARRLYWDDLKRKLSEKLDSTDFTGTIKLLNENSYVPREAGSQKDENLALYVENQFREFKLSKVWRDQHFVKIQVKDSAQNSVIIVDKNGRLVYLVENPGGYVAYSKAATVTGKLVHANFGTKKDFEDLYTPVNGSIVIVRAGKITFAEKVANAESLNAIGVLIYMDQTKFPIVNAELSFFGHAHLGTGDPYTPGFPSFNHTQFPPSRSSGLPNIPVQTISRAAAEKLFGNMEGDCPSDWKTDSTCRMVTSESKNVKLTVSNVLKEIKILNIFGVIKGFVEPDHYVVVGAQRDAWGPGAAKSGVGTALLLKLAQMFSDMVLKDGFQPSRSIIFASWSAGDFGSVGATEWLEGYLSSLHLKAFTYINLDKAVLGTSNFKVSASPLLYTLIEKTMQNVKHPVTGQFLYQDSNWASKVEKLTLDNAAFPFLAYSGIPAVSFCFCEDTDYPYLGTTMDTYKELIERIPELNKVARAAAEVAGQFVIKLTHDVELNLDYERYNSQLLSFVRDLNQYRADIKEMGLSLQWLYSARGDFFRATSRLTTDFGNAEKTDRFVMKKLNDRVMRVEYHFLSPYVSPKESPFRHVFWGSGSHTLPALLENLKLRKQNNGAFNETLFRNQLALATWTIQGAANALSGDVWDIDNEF
Protocol: as §1, §2

[3] = biological target: T3, purified mTfR1 mutant M2 (NAS) (mouse, UniProt Q62351 89-763); assay: ELISA, coated purified mTfR-1 mutant M2 (NAS) against WT
T3 construct: also called G254A
T3 sequence (Q62351 other isoform, or with tags, fused parts or gaps mutant): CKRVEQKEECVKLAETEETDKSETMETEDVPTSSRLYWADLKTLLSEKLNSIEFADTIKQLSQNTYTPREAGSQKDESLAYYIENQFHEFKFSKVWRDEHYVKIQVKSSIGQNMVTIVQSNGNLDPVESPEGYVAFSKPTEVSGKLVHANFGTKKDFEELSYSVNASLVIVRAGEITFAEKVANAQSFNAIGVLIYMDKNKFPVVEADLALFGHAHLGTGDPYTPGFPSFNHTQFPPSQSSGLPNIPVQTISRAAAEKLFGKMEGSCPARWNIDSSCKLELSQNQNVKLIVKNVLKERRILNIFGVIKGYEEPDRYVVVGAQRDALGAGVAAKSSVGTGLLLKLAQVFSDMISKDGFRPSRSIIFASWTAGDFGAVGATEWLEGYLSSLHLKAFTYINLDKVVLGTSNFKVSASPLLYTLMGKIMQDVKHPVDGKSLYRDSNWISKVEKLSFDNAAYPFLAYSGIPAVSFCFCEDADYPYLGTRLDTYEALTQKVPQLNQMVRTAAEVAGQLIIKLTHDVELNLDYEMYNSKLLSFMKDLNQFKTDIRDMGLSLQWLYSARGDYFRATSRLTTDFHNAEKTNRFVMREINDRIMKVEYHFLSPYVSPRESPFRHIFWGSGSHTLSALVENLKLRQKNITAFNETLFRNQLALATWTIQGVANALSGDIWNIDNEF

[4] = biological target: T1, recombinant mouse TfR-1, His-tagged …; assay: SPR, His-captured TfR1; remark: listed apart in the source
Protocol: (§3) Detailed binding kinetic analyses were performed to gain a better understanding of the relationship between affinity and brain penetration of the Clone H variants. Biacore surface plasmon resonance (SPR) analysis using immobilized mouse and human TfR-1 was performed for the clones (Table 5).
as §2

[5] = biological target: T2, recombinant human TfR-1, His-tagged …; assay: SPR, His-captured TfR1; remark: listed apart in the source
Protocol: as §3, §2

[6] = biological target: T4, purified mTfR1 mutant M1 (AGS) (mouse, UniProt Q62351 89-763); assay: ELISA, coated purified mTfR-1
T4 construct: also called N253A
T4 sequence (Q62351 other isoform, or with tags, fused parts or gaps mutant): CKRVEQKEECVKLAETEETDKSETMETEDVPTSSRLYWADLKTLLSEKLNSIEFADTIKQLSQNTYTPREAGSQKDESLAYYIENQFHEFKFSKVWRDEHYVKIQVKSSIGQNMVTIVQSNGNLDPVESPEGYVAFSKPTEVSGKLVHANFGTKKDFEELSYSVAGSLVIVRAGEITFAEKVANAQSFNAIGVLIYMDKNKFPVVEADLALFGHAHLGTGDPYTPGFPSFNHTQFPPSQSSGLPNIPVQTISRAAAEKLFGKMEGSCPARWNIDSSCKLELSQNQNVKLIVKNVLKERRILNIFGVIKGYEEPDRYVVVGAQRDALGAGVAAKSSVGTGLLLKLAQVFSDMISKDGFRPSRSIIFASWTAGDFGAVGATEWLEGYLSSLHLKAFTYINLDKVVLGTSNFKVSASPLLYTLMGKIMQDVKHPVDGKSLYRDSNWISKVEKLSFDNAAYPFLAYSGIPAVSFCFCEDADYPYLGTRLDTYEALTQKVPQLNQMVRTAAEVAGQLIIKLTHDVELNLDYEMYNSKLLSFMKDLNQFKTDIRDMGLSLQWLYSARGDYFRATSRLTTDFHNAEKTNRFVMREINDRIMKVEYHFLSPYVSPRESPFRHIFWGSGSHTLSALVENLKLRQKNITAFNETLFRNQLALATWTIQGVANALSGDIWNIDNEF

[7] = biological target: T3, purified mTfR1 mutant M2 (NAS); assay: ELISA, coated purified mTfR-1
[8] = biological target: T5, purified mTfR1 mutant M3 (NGA) (mouse, UniProt Q62351 89-763); assay: ELISA, coated purified mTfR-1
T5 construct: also called S255A
T5 sequence (Q62351 other isoform, or with tags, fused parts or gaps mutant): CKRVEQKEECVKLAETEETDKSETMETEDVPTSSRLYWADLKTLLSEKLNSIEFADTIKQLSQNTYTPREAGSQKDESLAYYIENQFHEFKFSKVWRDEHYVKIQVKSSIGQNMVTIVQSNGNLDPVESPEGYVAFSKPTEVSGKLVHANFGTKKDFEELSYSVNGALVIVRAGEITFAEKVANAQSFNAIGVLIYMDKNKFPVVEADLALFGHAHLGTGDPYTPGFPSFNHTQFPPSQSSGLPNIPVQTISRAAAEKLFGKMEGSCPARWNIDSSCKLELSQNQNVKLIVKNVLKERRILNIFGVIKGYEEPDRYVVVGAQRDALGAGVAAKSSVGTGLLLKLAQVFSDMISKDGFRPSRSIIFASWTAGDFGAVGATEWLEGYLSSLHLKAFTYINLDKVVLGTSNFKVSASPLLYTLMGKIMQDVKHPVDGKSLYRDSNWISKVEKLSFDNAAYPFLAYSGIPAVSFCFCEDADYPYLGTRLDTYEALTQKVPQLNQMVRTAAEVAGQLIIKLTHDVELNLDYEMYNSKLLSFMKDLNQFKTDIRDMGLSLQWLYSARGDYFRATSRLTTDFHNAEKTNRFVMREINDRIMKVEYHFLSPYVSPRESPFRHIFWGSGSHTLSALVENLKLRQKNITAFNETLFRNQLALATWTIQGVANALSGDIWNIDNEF

[9] = biological target: purified WT mTfR-1 (ELISA coat) (mouse, UniProt Q62351 89-763); assay: ELISA, coated purified mTfR-1
purified WT mTfR-1 (ELISA coat), sequence (Q62351 89-763): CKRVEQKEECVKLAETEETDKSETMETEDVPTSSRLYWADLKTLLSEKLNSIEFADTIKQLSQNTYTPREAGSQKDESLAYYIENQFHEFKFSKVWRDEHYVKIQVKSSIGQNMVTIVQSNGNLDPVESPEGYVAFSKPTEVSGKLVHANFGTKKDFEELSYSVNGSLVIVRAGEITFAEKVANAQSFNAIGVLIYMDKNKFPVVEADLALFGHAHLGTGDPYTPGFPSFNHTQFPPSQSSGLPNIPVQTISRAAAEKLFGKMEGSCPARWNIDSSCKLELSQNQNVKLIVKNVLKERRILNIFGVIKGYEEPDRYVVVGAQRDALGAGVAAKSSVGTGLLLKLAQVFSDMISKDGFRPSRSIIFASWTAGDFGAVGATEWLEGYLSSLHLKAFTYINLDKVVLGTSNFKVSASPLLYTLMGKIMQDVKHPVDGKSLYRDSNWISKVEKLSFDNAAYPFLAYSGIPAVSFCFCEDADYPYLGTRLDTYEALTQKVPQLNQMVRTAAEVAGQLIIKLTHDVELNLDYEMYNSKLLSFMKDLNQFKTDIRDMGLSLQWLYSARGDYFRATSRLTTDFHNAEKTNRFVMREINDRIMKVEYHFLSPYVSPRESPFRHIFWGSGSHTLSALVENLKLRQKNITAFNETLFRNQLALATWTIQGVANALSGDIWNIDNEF

T1 sequence (Q62351 89-763 limits assumed, stated change not applied): as the sequence (Q62351 89-763) above

Kd [1] [nM] | koff [1] [s⁻¹] | kon [1] [M⁻¹ s⁻¹] | Kd [2] [nM] | koff [2] [s⁻¹] | kon [2] [M⁻¹ s⁻¹] | fold reduction of binding relative to WT mTfR-1 [3] [fold] | Kd [4] [nM] | koff [4] [s⁻¹] | kon [4] [M⁻¹ s⁻¹] | Kd [5] [nM] | koff [5] [s⁻¹] | kon [5] [M⁻¹ s⁻¹] | EC50 [6] [nM] | EC50 [7] [nM] | EC50 [8] [nM] | EC50 [9] [nM] | Binder
0.715 | 0.000128 | 179000 | 0.699 | 0.000142 | 203000 |  |  |  |  |  |  |  |  |  |  |  | Clone C variant 12 VNAR-hFc (Fc fusion, not shown: a dimerising Fc or GST) ARVDQTPQTITKETGESLTINCVLRDSNCALSSTYWYRKKSGSTNEENISKGGRYVETVNSGSKSFSLRINDLTVEDSGTYRCNVVQYPQQDNPFWCDVYGDGTAVTVN
6.69 | 0.000133 | 19900 | 6.34 | 0.000156 | 24500 |  |  |  |  |  |  |  |  |  |  |  | Clone C variant 14 VNAR-hFc (Fc fusion, not shown: a dimerising Fc or GST) ARVDQTPQTITKETGESLTINCVLRDSNCALSSTYWYRKKSGSTNEENISKGGRYVETVNSGSKSFSLRINDLTVEDSGTYRCNVVQYPQQDRPFWCDVYGDGTAVTVN
0.0902 | 2.52e-05 | 279000 | 0.248 | 5.78e-05 | 233000 |  |  |  |  |  |  |  |  |  |  |  | Clone C variant 15 VNAR-hFc (Fc fusion, not shown: a dimerising Fc or GST) ARVDQTPQTITKETGESLTINCVLRDSNCALSSTYWYRKKSGSTNEENISKGGRYVETVNSGSKSFSLRINDLTVEDSGTYRCNVVQYPQQPNYFWCDVYGDGTAVTVN
0.207 | 3.72e-05 | 180000 | 0.439 | 8.13e-05 | 185000 |  |  |  |  |  |  |  |  |  |  |  | Clone C variant 17 VNAR-hFc (Fc fusion, not shown: a dimerising Fc or GST) ARVDQTPQTITKETGESLTINCVLRDSNCALSSTYWYRKKSGSTNEENISKGGRYVETVNSGSKSFSLRINDLTVEDSGTYRCNVVQYPQYDNYFWCDVYGDGTAVTVN
2.06 | 0.000103 | 50100 | 5.61 | 0.000291 | 51900 |  |  |  |  |  |  |  |  |  |  |  | Clone C variant 20 VNAR-hFc (Fc fusion, not shown: a dimerising Fc or GST) ARVDQTPQTITKETGESLTINCVLRDSNCALSSTYWYRKKSGSTNEENISKGGRYVETVNSGSKSFSLRINDLTVEDSGTYRCNVVQYPSHNNYFWCDVYGDGTAVTVN
1.33 | 0.000287 | 216000 | 0.454 | 0.000109 | 239000 |  |  |  |  |  |  |  |  |  |  |  | Clone C variant 19 VNAR-hFc (Fc fusion, not shown: a dimerising Fc or GST) ARVDQTPQTITKETGESLTINCVLRDSNCALSSTYWYRKKSGSTNEENISKGGRYVETVNSGSKSFSLRINDLTVEDSGTYRCNVVQYPRTNNYFWCDVYGDGTAVTVN
 |  |  |  |  |  | ~10 | 2.54 | 9.11e-05 | 35800 | 6.11 | 0.00183 | 301000 | 5.7 | 170 | 6.6 | 1.6 | Clone H VNAR-hFc fusion (Fc fusion, not shown: a dimerising Fc or GST, bivalent VNAR-Fc) ARVDQTPQTITKETGESLTINCVLRDSNCELSSTYWYRKKSGSTNEESISKGGRYVETVNSGSKSFSLRINDLVVEDSGTYRCNVQQFPSSSNGRYWCDVYGGGTAVTVNA
 |  |  |  |  |  |  | 11 | 0.000369 | 33700 |  |  |  |  |  |  |  | Clone H variant 5 VNAR-hFc (Fc fusion, not shown: a dimerising Fc or GST) ARVDQTPQTITKETGESLTINCVLRDSNCELSSTYWYRKKSGSTNEESISKGGRYVETVNSGSKSFSLRINDLVVEDSGTYRCNVQQFPNRWNGRYWCDVYGGGTAVTVNA
 |  |  |  |  |  | ~10 | 4.69 | 0.000195 | 41600 | 2.38 | 0.000121 | 50800 | 1.4 | 4.7 | 0.99 | 0.69 | Clone H variant 1 VNAR-hFc (Fc fusion, not shown: a dimerising Fc or GST, also called clone H var) ARVDQTPQTITKETGESLTINCVLRDSNCELSSTYWYRKKSGSTNEESISKGGRYVETVNSGSKSFSLRINDLVVEDSGTYRCNVVQWPSSSNGRYWCDVYGGGTAVTVNA
 |  |  |  |  |  |  | 16.5 | 0.000417 | 25300 |  |  |  |  |  |  |  | Clone H variant 6 VNAR-hFc (Fc fusion, not shown: a dimerising Fc or GST) ARVDQTPQTITKETGESLTINCVLRDSNCELSSTYWYRKKSGSTNEESISKGGRYVETVNSGSKSFSLRINDLVVEDSGTYRCNVQQFPSRNNGRYWCDVYGGGTAVTVNA
 |  |  |  |  |  |  | 5.59 | 0.000273 | 48900 | 4.71 | 0.000254 | 53900 |  |  |  |  | Clone H variant 3 VNAR-hFc (Fc fusion, not shown: a dimerising Fc or GST) ARVDQTPQTITKETGESLTINCVLRDSNCELSSTYWYRKKSGSTNEESISKGGRYVETVNSGSKSFSLRINDLVVEDSGTYRCNVQQFPSWGNGRYWCDVYGGGTAVTVNA
 |  |  |  |  |  |  | 8.4 | 0.000618 | 73600 | 25 | 0.000948 | 38000 |  |  |  |  | Clone H variant 8 VNAR-hFc (Fc fusion, not shown: a dimerising Fc or GST) ARVDQTPQTITKETGESLTINCVLRDSNCELSSTYWYRKKSGSTNEESISKGGRYVETVNSGSKSFSLRINDLVVEDSGTYRCNVQQFPSRHNGRYWCDVYGGGTAVTVNA
 |  |  |  |  |  | ~10 | 5.53 | 0.000279 | 50500 | 3.37 | 0.000269 | 79900 | 3.3 | 22 | 4 | 2.5 | Clone H variant 10 VNAR-hFc (Fc fusion, not shown: a dimerising Fc or GST, also called clone H var; 10) ARVDQTPQTITKETGESLTINCVLRDSNCELSSTYWYRKKSGSTNEESISKGGRYVETVNSGSKSFSLRINDLVVEDSGTYRCNVQQFPSWFNGRYWCDVYGGGTAVTVNA
 |  |  |  |  |  |  | 12.4 | 0.000352 | 28300 | 15.9 | 0.00183 | 115000 |  |  |  |  | Clone H variant 4 VNAR-hFc (Fc fusion, not shown: a dimerising Fc or GST) ARVDQTPQTITKETGESLTINCVLRDSNCELSSTYWYRKKSGSTNEESISKGGRYVETVNSGSKSFSLRINDLVVEDSGTYRCNVQQFPSRFNGRYWCDVYGGGTAVTVNA
 |  |  |  |  |  |  | 25.2 | 0.000482 | 19100 | 3.77 | 0.000403 | 107000 |  |  |  |  | Clone H variant 2 VNAR-hFc (Fc fusion, not shown: a dimerising Fc or GST) ARVDQTPQTITKETGESLTINCVLRDSNCELSSTYWYRKKSGSTNEESISKGGRYVETVNSGSKSFSLRINDLVVEDSGTYRCNVQQFPSSWPFRYWCDVYGGGTAVTVNA
 |  |  |  |  |  |  | 15.6 | 0.000399 | 25600 |  |  |  |  |  |  |  | Clone H variant 7 VNAR-hFc (Fc fusion, not shown: a dimerising Fc or GST) ARVDQTPQTITKETGESLTINCVLRDSNCELSSTYWYRKKSGSTNEESISKGGRYVETVNSGSKSFSLRINDLVVEDSGTYRCNVQQFPTRTNGRYWCDVYGGGTAVTVNA
